This assay has as its target SARS-CoV-2 S receptor-binding domain (RBD) (SARS-CoV-2, UniProt P0DTC2). The experiment in a line: SPR. (In general: In SPR one partner is held on a chip, and binding of the other changes the refractive index at the surface.)

B1: S2M11 Fab fragment (Fab, V domains shown)
VH: EVQLVQSGAEVKKPGASVKVSCKASGYTFTGYYMHWVRQAPGQGLEWMGWINPISSGTSYAQTFQGRVTMTSDTSITTAYMELSRLRSDDTAVYYCARAAPFYDFWSGYSYFDYWGQGTLVTVSS
VL: not shown
B1 displayed a Kd of 66 nM. That is a double-digit nanomolar value.

B2: S2E12 Fab fragment (Fab, V domains shown)
VH: not shown
VL: DIVLTQTPGTLSLSPGERATLSCRASQSVSSSYLAWYQQKPGQAPRLLIYGASSRATGIPDRFSGSGSGTDFTLTISRLEPEDFAVYYCQQYVGLTGWTFGQGTKVEIK
In turn, B2 registered a Kd of 1.6 nM. This Kd lies about 41-fold lower than the previous one.

In general, Kd refers to a measure of binding affinity in units of concentration. Read a low Kd as a tighter complex.

Source of the values: paper PMC7857395 (2020).
